According to patent US20140248254:

Biological target: G-Actin protein

B1: Mus AChE protein (AChE 1-548AA, mouse) (protein)
chain: EGREDPQLLVRVRGGQLRGIRLKAPGGPVSAFLGIPFAEPPVGSRRFMPPEPKRPWSGVLDATTFQNVCYQYVDTLYPGFEGTEMWNPNRELSEDCLYLNVWTPYPRPASPTPVLIWIYGGGFYSGAASLDVYDGRFLAQVEGAVLVSMNYRVGTFGFLALPGSREAPGNVGLLDQRLALQWVQENIAAFGGDPMSVTLFGESAGAASVGMHILSLPSRSLFHRAVLQSGTPNGPWATVSAGEARRRATLLARLVGCPPGGAGGNDTELIACLRTRPAQDLVDHEWHVLPQESIFRFSFVPVVDGDFLSDTPEALINTGDFQDLQVLVGVVKDEGSYFLVYGVPGFSKDNESLISRAQFLAGVRIGVPQASDLAAEAVVLHYTDWLHPEDPTHLRDAMSAVVGDHNVVCPVAQLAGRLAAQGARVYAYIFEHRASTLTWPLWMGVPHGYEIEFIFGLPLDPSLNYTTEERIFAQRLMKYWTNFARTGDPNDPRDSKSPQWPPYTTAAQQYVSLNLKP
cleaving of plasmid DNA by AChE (agarose gel) after pre-incubation with G-Actin: it almost had no effect on cleaving ability of AChE on DNA
